Series [1] has as its target T1, rDorsal-RHD (Litopenaeus vannamei, UniProt D2E9Y3 74-253).
T1 sequence: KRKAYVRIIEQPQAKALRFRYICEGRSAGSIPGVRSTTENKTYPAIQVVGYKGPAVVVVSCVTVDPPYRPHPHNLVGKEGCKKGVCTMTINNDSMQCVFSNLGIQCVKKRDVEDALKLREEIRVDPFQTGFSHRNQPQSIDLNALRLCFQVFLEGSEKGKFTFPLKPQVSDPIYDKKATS
In words: EMSA. A general note: In EMSA bound probe runs differently from free probe, usually more slowly.

Series [2] has as its target rTrx (UniProt P0AA25 1-109). Description: EMSA.
Series [3] addresses T1, rDorsal-RHD. Description: competition.

This is an account of results in publication doi:10.1101/467571.

Sequence of rTrx (P0AA25 whole entry): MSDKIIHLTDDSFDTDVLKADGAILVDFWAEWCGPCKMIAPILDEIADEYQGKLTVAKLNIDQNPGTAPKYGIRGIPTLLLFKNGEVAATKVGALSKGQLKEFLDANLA

B1: probe 1 (BigPEN kB1) (dsDNA)
DNA 1: TCTGTGTGTGTGTCCTTTAGTGTTTTTCGCCGGAGAAAACATTATCAGAC
DNA 2: GTCTGATAATGTTTTCTCCGGCGAAAAACACTAAAGGACACACACACAGA
For the molecule B1, the binding result in series [1] is reported as “binds”; in series [2], “no binding”.

B2: unlabeled probe 1 (dsDNA)
DNA 1: TCTGTGTGTGTGTCCTTTAGTGTTTTTCGCCGGAGAAAACATTATCAGAC
DNA 2: GTCTGATAATGTTTTCTCCGGCGAAAAACACTAAAGGACACACACACAGA
In the case of B2, the binding result in series [3] is “binds”.

B3: Mut-bio-probe 1 (dsDNA)
DNA 1: TCTGTGTGTGTGTCCTTTACGGAGAAAACATTATCAGA
DNA 2: TCTGATAATGTTTTCTCCGTAAAGGACACACACACAGA
Take B3: in series [1], the binding result is “no binding”.
